Test results reported in patent publication US20210395344A1 (TWIST BIOSCIENCE, published 2021).
Where two headings read alike, the source gives them in different places.

How the values were obtained:
[1] = molecular target: T1, SARS-CoV-2 Spike Glycoprotein S1 (subunit 1) (SARS-CoV-2, UniProt P0DTC2 16-685); experiment: screening phage ELISA, mean
T1 construct: also called S1 Monomer; SARS-CoV-2 S1

[2] = molecular target: T1, SARS-CoV-2 Spike Glycoprotein S1 …; experiment: column Inhibitor IC50 (assay not explained)
[3] = molecular target: T1, SARS-CoV-2 Spike Glycoprotein S1 …; experiment: screening phage ELISA, mean; remark: listed apart in the source
[4] = molecular target: T1, SARS-CoV-2 Spike Glycoprotein S1 …; experiment: column DC/S1 (format not explained)
[5] = molecular target: T1, SARS-CoV-2 Spike Glycoprotein S1 …; experiment: ELISA binding titration
S1-Fc [6] = molecular target: T2, S1-Fc (SARS-CoV-2, UniProt P0DTC2 16-685); experiment: phage ELISA
[7] = molecular target: T3, COVID S1 RBM Fc fusion (Antigen 2) (SARS-CoV-2, UniProt P0DTC2 437-508); experiment: phage ELISA
T3 construct: domain: RBM

[8] = molecular target: T4, SARS-CoV-2 S1 (antigen of the Carterra SPR kinetics) (SARS-CoV-2, UniProt P0DTC2 16-685); experiment: Carterra SPR
[9] = molecular target: T4, SARS-CoV-2 S1 (antigen of the Carterra …); experiment: Carterra SPR; remark: listed apart in the source
S1-Fc [10] = molecular target: T2, S1-Fc; experiment: phage ELISA; remark: listed apart in the source
[11] = molecular target: T3, COVID S1 RBM Fc fusion (Antigen 2); experiment: phage ELISA; remark: listed apart in the source

| Binder | ELISA (Avg) [1] | IC50 [2] | ELISA (Avg) [3] | EC50 [5] | further results |
| --- | --- | --- | --- | --- | --- |
| 1-21 (antibody, V domains shown) VH: EVQLLESGGGLVQPGGSLRLSCAASGFTFSSYTMSWVRQAPGKGLEWVSIISGSGGSTYYADSVKGRFTISRDNSKNTLYLQMNSLRAEDTAVYYCAREGYRDYLWYFDLWGQGTLVTVSS VL: QSALTQPASVSGSPGQSITISCTGTSSDVGSNNLVSWYQQHPGKAPKLMIYEGNKRPSGVSNRFSGSKSGNTASLTISGLQAEDEADYYCCSYAGSVVFGGGTKLTVL | 47.6 | 6.7 nM | 47.6 |  |  |
| 1-24 (antibody, V domains shown) VH: EVQLLESGGGLVQPGGSLRLSCAASGFTFSSYAMNWVRQAPGKGLEWVSIISGSGGSTYYADSVKGRFTISRDNSKNTLYLQMNSLRAEDTAVYYCAREGYRDYLWYFDLWGQGTLVTVSS VL: QSALTQPASVSGSPGQSITISCTGTSSDVGYYNLVSWYQQHPGKAPKLMIYEGNKRPSGVSNRFSGSKSGNTASLTISGLQAEDEADYYCCSYAGGSVVFGGGTKLTVL | 32.9 |  | 32.9 |  | Kd [4]: 2040 nM |
| 1-51 (antibody, V domains shown) VH: EVQLLESGGGLVQPGGSLRLSCAASGFTFSSYAMSWVRQAPGKGLEWVSVISGSGGSTYYADSVKGRFTISRDNSKNTLYLQMNSLRAEDTAVYYCAREGYRDYLWYFDLWGQGTLVTVSS VL: QSALTQPASVSGSPGQSITISCTGTSSDVGSYDLVSWYQQHPGKAPKLMIYEGNKRPSGVSNRFSGSKSGNTASLTISGLQAEDEADYYCCSYAGSSVVFGGGTKLTVL | 7.1 |  | 7.1 | 98.2 nM |  |
| 1-22 (antibody, V domains shown) VH: EVQLLESGGGLVQPGGSLRLSCAASGFTFSSYAMNWVRQAPGKGLEWVSIISGSGGSTYYADSVKGRFTISRDNSKNTLYLQMNSLRAEDTAVYYCAREGYRDYLWYFDLWGQGTLVTVSS VL: QSALTQPASVSGSPGQSITISCTGTSTDVGSYNLVSWYQQHPGKAPKLMIYEGSQRPSGVSNRFSGSKSGNTASLTISGLQAEDEADYYCCSYAGSSTVFGGGTKLTVL | 40.6 | 73.2 nM | 40.6 | 6.55 nM |  |
| 1-52 (antibody, V domains shown) VH: EVQLLESGGGLVQPGGSLRLSCAASGFTFSNYAMSWVRQAPGKGLEWVSAISGSAGSTYYADSVKGRFTISRDNSKNTLYLQMNSLRAEDTAVYYCARVRQGLRRTWYYFDYWGQGTLVTVSS VL: QSALTQPASVSGSPGQSITISCTGTSSDVGSSNLVSWYQQHPGKAPKLMIYEGSKRPSGVSNRFSGSKSGNTASLTISGLQAEDEADYYCCSYAGSLYVFGGGTKLTVL | 3.5 | 740 nM | 3.5 |  |  |
| 1-30 (antibody, V domains shown) VH: EVQLLESGGGLVQPGGSLRLSCAASGFTFSSYAMTWVRQAPGKGLEWVSAISGSGGSTFYADSVKGRFTISRDNSKNTLYLQMNSLRAEDTAVYYCTRPPYGDYGDYWGQGTLVTVSS VL: QSALTQPASVSGSPGQSITISCTGTSRDVGSYNLVSWYQQHPGKAPKLMIYEGTKRPSGVSNRFSGSKSGNTASLTISGLQAEDEADYYCCSYAGSRTPVVFGGGTKLTVL | 29.5 | 25.3 nM | 29.5 |  | Kd [4]: 4.7 nM |
| 1-26 (antibody, V domains shown) VH: EVQLLESGGGLVQPGGSLRLSCAASGFTFSSYAISWVRQAPGKGLEWVSAISGSGYSTYYADSVKGRFTISRDNSKNTLYLQMNSLRAEDTAVYYCARGAPDSSGYYFQGEVYFDYWGQGTLVTVSS VL: QSALTQPASVSGSPGQSITISCTGTSSDVGGYNLVSWYQQHPGKAPKLMIYEGTKRPSGVSNRFSGSKSGNTASLTISGLQAEDEADYYCCSFVRSSAHVVFGGGTKLTVL | 19.5 | 8 nM | 19.5 | 48.5 nM |  |
| 1-10 (antibody, V domains shown) VH: EVQLLESGGGLVQPGGSLRLSCAASGFTFSSYDMSWVRQAPGKGLEWVSVISGSGGSTYYADSVKGRFTISRDNSKNTLYLQMNSLRAEDTAVYYCAKGPLVGWYFDLWGQGTLVTVSS VL: QSALTQPASVSGSPGQSITISCTGTSSNVGSYNLVSWYQQHPGKAPKLMIYEGTKRPSGVSNRFSGSKSGNTASLTISGLQAEDEADYYCCSYAGSSSFVVFGGGTKLTVL | 16.9 | 17.7 nM | 16.9 |  |  |
| 1-32 (antibody, V domains shown, also called variant 1-32) VH: EVQLLESGGGLVQPGGSLRLSCAASGFTFSSYAMYWVRQAPGKGLEWVSAISGSGGSTFYADSVKGRFTISRDNSKNTLYLQMNSLRAEDTAVYYCTRPPYGDYGDYWGQGTLVTVSS VL: QSALTQPASVSGSPGQSITISCTGTSSDVGGYNLVSWYQQHPGKAPKLMIYEGNKRPSGVSNRFSGSKSGNTASLTISGLQAEDEADYYCCSYAGSSTFPVVFGGGTKLTVL |  |  |  |  | ELISA fold over background (S1-Fc [6]): 4 fold over background; ELISA fold over background [7]: 1.1 fold over background; Kd [8]: 57.8 nM; koff [8]: 0.317 s⁻¹; kon [8]: 5.49e+06 M⁻¹ s⁻¹; koff [9]: 0.317 s⁻¹; kon [9]: 5.49e+06 M⁻¹ s⁻¹; ELISA fold over background (S1-Fc [10]): 4 fold over background; ELISA fold over background [11]: 1.1 fold over background |
| 1-5 (antibody, V domains shown) VH: EVQLLESGGGLVQPGGSLRLSCAASGFTFSSQAMSWVRQAPGKGLEWVSAISGSGGGTYYADSVKGRFTISRDNSKNTLYLQMNSLRAEDTAVYYCAKDRRFGEFDPWGQGTLVTVSS VL: QSALTQPASVSGSPGQSITISCTGTSSGVGSYNLVSWYQQHPGKAPKLMIYEASKRPSGVSNRFSGSKSGNTASLTISGLQAEDEADYYCCSYAGSYTFAVFGGGTKLTVL | 20.6 |  | 20.6 | 7.83 nM |  |
| 1-7 (antibody, V domains shown) VH: EVQLLESGGGLVQPGGSLRLSCAASGFTFSSYDMSWVRQAPGKGLEWVSVISGSGGSTYYADSVKGRFTISRDNSKNTLYLQMNSLRAEDTAVYYCAKGPLVGWYFDLWGQGTLVTVSS VL: QSALTQPASVSGSPGQSITISCTGTSSDFGSYNLVSWYQQHPGKAPKLMIYEGNKRPSGVSNRFSGSKSGNTASLTISGLQAEDEADYYCCSYAGSSTFVVFGGGTKLTVL | 22.5 |  | 22.5 | 95.7 nM |  |
| 1-9 (antibody, V domains shown) VH: EVQLLESGGGLVQPGGSLRLSCAASGFTFSSYDMSWVRQAPGKGLEWVSVISGSGGSTYYADSVKGRFTISRDNSKNTLYLQMNSLRAEDTAVYYCAKGPLVGWYFDLWGQGTLVTVSS VL: QSALTQPASVSGSPGQSITISCTGTSSDVGDYNLVSWYQQHPGKAPKLMIYEGSNRPSGVSNRFSGSKSGNTASLTISGLQAEDEADYYCCSYAGSSSFVVFGGGTKLTVL | 18.5 | 282 nM | 18.5 |  |  |
| 1-8 (antibody, V domains shown) VH: EVQLLESGGGLVQPGGSLRLSCAASGFTFSSYDMSWVRQAPGKGLEWVSVISGSGGSTYYADSVKGRFTISRDNSKNTLYLQMNSLRAEDTAVYYCAKGPLVGWYFDLWGQGTLVTVSS VL: QSALTQPASVSGSPGQSITISCTGTSNDVGSYNLVSWYQQHPGKAPKLMIYEGSKRPSGVSNRFSGSKSGNTASLTISGLQAEDEADYYCCSYAGSRYVVFGGGTKLTVL | 19.3 | 97.3 nM | 19.3 |  |  |
